The values below come from the supplement of paper PMC7125110.

± gives the standard error. For some of these results: Variants at the floor of the assay were thinned out.

The chains are these.
B1: glmS ribozyme (parent)
chain: AUAAAAGCGCCAGAACUACAGAAAUGUAGUUGACGAGGAGGAGGUUUAUCGAAUUUUCGGCGGAUGCCUCCAAA

Conditions in all cases: with glucosamine-6-phosphate
In series [1] the parent is B1. Put plainly: kcat; higher = faster cleavage; RNA array. Put shortly: (§1)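 Ribozyme variants carrying barcodes were transcribed in situ on sequenced MiSeq chips by E. coli RNA polymerase and tracked at 37 °C with a hybridised Cy3 probe. They were exposed to 40 μM to 10 mM glucosamine-6-phosphate in HEPES/KCl/Mg(OAc)2 buffer. kobs came from exponential decay fits of normalised per-tile medians, and kcat and KM from weighted Michaelis–Menten fits.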

Series [2] covers variants of B1. Description: self-cleavage kobs at 640 uM GlcN6P; higher = faster cleavage; RNA array. Put shortly: as §1
Series [3] covers variants of B1. Put plainly: self-cleavage kobs at 2500 uM GlcN6P; higher = faster cleavage; RNA array. The procedure, abridged:
as §1

Variants of B1 are the subject of series [4]. Put plainly: self-cleavage kobs at 40 uM GlcN6P; higher = faster cleavage; RNA array. The procedure, abridged:
as §1

In series [5] the parent is B1. Put plainly: self-cleavage kobs at 10000 uM GlcN6P; higher = faster cleavage; RNA array. Put shortly:
as §1

Variants of B1 are the subject of series [6]. Put plainly: KM; higher = weaker cofactor use; RNA array. The procedure, abridged: as §1
In series [7] the parent is B1. Put plainly: self-cleavage kobs at 160 uM GlcN6P; higher = faster cleavage; RNA array. Put shortly: as §1

As a reminder, the kcat is the maximal rate divided by the concentration of active sites. Consider AUAAAAGAGCCAGAACUACAGAAAUGUAGUUGACGAGGAGGAGGUUUACCGAAUUUUCGGCGGAUGCCUCCAAA [C8A U49C], for which the kcat with glucosamine-6-phosphate [1] is less than 1e-05 s⁻¹. Further, the “self-cleavage kobs at 640 uM GlcN6P” value in the series with glucosamine-6-phosphate [2] was less than 1e-05 s⁻¹. Moreover, in the series with glucosamine-6-phosphate [3], the “self-cleavage kobs at 2500 uM GlcN6P” value is less than 1e-05 s⁻¹.

For the variant AUAAAAGGGCCAGAACUACAGAAAUGUAGUUGACGAGGAGGAGGUUUAUCGAAUUUCCGGCGGAUGCCUCCAAA [C8G U57C], the kcat with glucosamine-6-phosphate [1] was less than 1e-05 s⁻¹. The “self-cleavage kobs at 40 uM GlcN6P” value in the series with glucosamine-6-phosphate [4] is less than 1e-05 s⁻¹. In addition, in the series with glucosamine-6-phosphate [2], the “self-cleavage kobs at 640 uM GlcN6P” value is less than 1e-05 s⁻¹. Moreover, the “self-cleavage kobs at 2500 uM GlcN6P” value in the series with glucosamine-6-phosphate [3] is less than 1e-05 s⁻¹. Besides, the “self-cleavage kobs at 10000 uM GlcN6P” value with glucosamine-6-phosphate [5] was less than 1e-05 s⁻¹.

In the case of AUAAAUGCGCCAGAACUACAGAAAUGUAGUAGACGAGGAGGAGGUUGAUAGAAUUUUCGGCGGGUGCUUCCAAA [A6U U31A U47G C50A A64G C68U], the kcat with glucosamine-6-phosphate [1] is 2.33e-05 ± 2.2e-06 s⁻¹.

As to AUAAAAGCGCCAGAACUACAGAAAUGUAGUUGACGAGGAGGCGGUAUAUCGAAUUUUCGGCGGAUGCCUCCAAA [A42C U46A], the kcat with glucosamine-6-phosphate [1] was less than 1e-05 s⁻¹. Further, in the series with glucosamine-6-phosphate [4], the “self-cleavage kobs at 40 uM GlcN6P” value was less than 1e-05 s⁻¹. Besides, in the series with glucosamine-6-phosphate [2], the “self-cleavage kobs at 640 uM GlcN6P” value was less than 1e-05 s⁻¹.

Broadly, the KM is the concentration of substrate that gives half-maximal velocity. Turning to AUAAAAGCGCCAGGACUACAGAAAUGUAGUUGACGAGGAGGAGGUUUAUCGAAUUUUAGGCGGAUGCCUCCAAA [A14G C58A], the turnover number (kcat) with glucosamine-6-phosphate [1] came to 0.00151 ± 0.00049 s⁻¹. Moreover, in the series with glucosamine-6-phosphate [6], the KM stood at 4260 ± 2000 µM. In the series with glucosamine-6-phosphate [4], the “self-cleavage kobs at 40 uM GlcN6P” value is 2.97e-05 ± 1e-05 s⁻¹. Further, the “self-cleavage kobs at 160 uM GlcN6P” value in the series with glucosamine-6-phosphate [7] worked out at 6.76e-05 ± 3.4e-05 s⁻¹. Also, in the series with glucosamine-6-phosphate [2], the “self-cleavage kobs at 640 uM GlcN6P” value was found to be 0.000214 ± 2.3e-05 s⁻¹. For the same variant, in the series with glucosamine-6-phosphate [3], the “self-cleavage kobs at 2500 uM GlcN6P” value turned out to be 0.000448 ± 6.1e-05 s⁻¹. In addition, the “self-cleavage kobs at 10000 uM GlcN6P” value with glucosamine-6-phosphate [5] amounted to 0.0012 ± 0.00014 s⁻¹.

Consider AUAAAAGCGCCUCAACUACAGAAAUGUAGUUGACGAGGAGGAGGUUUAUCGAAUUUUCGGCGGAUGCCUCCAAA [A12U G13C], for which the kcat with glucosamine-6-phosphate [1] is less than 1e-05 s⁻¹. Besides, the “self-cleavage kobs at 40 uM GlcN6P” value with glucosamine-6-phosphate [4] was less than 1e-05 s⁻¹. In addition, the “self-cleavage kobs at 160 uM GlcN6P” value with glucosamine-6-phosphate [7] was less than 1e-05 s⁻¹. Besides, the “self-cleavage kobs at 640 uM GlcN6P” value with glucosamine-6-phosphate [2] is less than 1e-05 s⁻¹.

In the case of AUAAAAGCGCCAGAACUACAGAAAUGUAGUUGACGAGGAGGAGGAUUAUAGAAUUUUCGGCGGAUGCCUCCAAA [U45A C50A], in the series with glucosamine-6-phosphate [1], the kcat stood at 1.56e-05 ± 1.5e-06 s⁻¹.

As for AUAAAAGCGCCAGAACUACAGAAAUGUAGUUAACGAGGAGGAGGUUUAGCGAAUUUUCGGCGGAUGCCUCCAAA [G32A U49G], the kcat with glucosamine-6-phosphate [1] turned out to be 5.97e-05 ± 1.4e-06 s⁻¹. Further, in the series with glucosamine-6-phosphate [6], the KM is 741 ± 85 µM. In addition, the “self-cleavage kobs at 40 uM GlcN6P” value with glucosamine-6-phosphate [4] was less than 1e-05 s⁻¹. Besides, in the series with glucosamine-6-phosphate [2], the “self-cleavage kobs at 640 uM GlcN6P” value came to 2.83e-05 ± 1.2e-05 s⁻¹. Further, the “self-cleavage kobs at 2500 uM GlcN6P” value with glucosamine-6-phosphate [3] was found to be 4.58e-05 ± 1.1e-05 s⁻¹. Also, the “self-cleavage kobs at 10000 uM GlcN6P” value with glucosamine-6-phosphate [5] was determined as 5.56e-05 ± 8.3e-06 s⁻¹.

In the case of AUAAAAGCGCGCGAACUACAGAAAUGUAGUUGACGAGGAGGAGGUUUAUCGAAUUUUCGGCGGAUGCCUCCAAA [C11G A12C], the kcat in the series with glucosamine-6-phosphate [1] was determined as 0.000156 ± 3.2e-05 s⁻¹. The “self-cleavage kobs at 2500 uM GlcN6P” value with glucosamine-6-phosphate [3] amounted to 6.61e-05 ± 1.2e-05 s⁻¹. In addition, the “self-cleavage kobs at 10000 uM GlcN6P” value with glucosamine-6-phosphate [5] is 0.00011 ± 1.3e-05 s⁻¹.

As for AUAAAAGCGCCAGAACUACAGAAAUGUAGUUGACGAGGGGGAGGUUUAUCGAUUUUUCGGCGGAUGCCUCCAAA [A39G A53U], the kcat with glucosamine-6-phosphate [1] was 0.0202 ± 0.0043 s⁻¹. In addition, the KM with glucosamine-6-phosphate [6] is 805 ± 260 µM. For the same variant, in the series with glucosamine-6-phosphate [4], the “self-cleavage kobs at 40 uM GlcN6P” value was determined as 0.00108 ± 0.00016 s⁻¹. Also, the “self-cleavage kobs at 160 uM GlcN6P” value in the series with glucosamine-6-phosphate [7] was 0.00271 ± 0.00057 s⁻¹. The “self-cleavage kobs at 640 uM GlcN6P” value with glucosamine-6-phosphate [2] was 0.0101 ± 0.0016 s⁻¹. The “self-cleavage kobs at 2500 uM GlcN6P” value in the series with glucosamine-6-phosphate [3] came to 0.0119 ± 0.0027 s⁻¹. The “self-cleavage kobs at 10000 uM GlcN6P” value in the series with glucosamine-6-phosphate [5] came to 0.0229 ± 0.0041 s⁻¹.

For AUAAAAGCGCCAGAACUACAGAAAUGUAGAUGACGAGGAGGAGGUUUAUCGAAUUUUCGGCGGAUGUCUCCAAA [U30A C67U], in the series with glucosamine-6-phosphate [1], the kcat came to 0.00166 ± 0.00065 s⁻¹. Moreover, the “self-cleavage kobs at 40 uM GlcN6P” value with glucosamine-6-phosphate [4] was 5.62e-05 ± 1.2e-05 s⁻¹. For the same variant, in the series with glucosamine-6-phosphate [7], the “self-cleavage kobs at 160 uM GlcN6P” value amounted to 0.000105 ± 2.1e-05 s⁻¹. Moreover, the “self-cleavage kobs at 640 uM GlcN6P” value in the series with glucosamine-6-phosphate [2] is 0.00036 ± 6.4e-05 s⁻¹. In addition, the “self-cleavage kobs at 2500 uM GlcN6P” value with glucosamine-6-phosphate [3] was found to be 0.00118 ± 0.00017 s⁻¹. For the same variant, in the series with glucosamine-6-phosphate [5], the “self-cleavage kobs at 10000 uM GlcN6P” value was 0.00106 ± 0.00034 s⁻¹.

Take AUAAAAGCGCCAGAACUACAGAAAUGUAGUUGAUGAGGAGGAAGUUUAUCGAAUUUUCGGCGGAUGCCUCCAAA [C34U G43A]: the kcat in the series with glucosamine-6-phosphate [1] is less than 1e-05 s⁻¹. The “self-cleavage kobs at 40 uM GlcN6P” value in the series with glucosamine-6-phosphate [4] was less than 1e-05 s⁻¹. In the series with glucosamine-6-phosphate [7], the “self-cleavage kobs at 160 uM GlcN6P” value was less than 1e-05 s⁻¹.

On to AUAAAAGCGCCAGAACUACAGAAAUGUAGUUGACGAGGAGGAGGUUUAUCGAAUUUUAGGCGGAUGCCUCUAAA [C58A C71U], for which the kcat in the series with glucosamine-6-phosphate [1] came to 0.00051 ± 0.0001 s⁻¹. In addition, the KM with glucosamine-6-phosphate [6] was 3890 ± 1200 µM. Besides, the “self-cleavage kobs at 160 uM GlcN6P” value in the series with glucosamine-6-phosphate [7] stood at 4.42e-05 ± 1.2e-05 s⁻¹. The “self-cleavage kobs at 640 uM GlcN6P” value with glucosamine-6-phosphate [2] is 7.43e-05 ± 7.2e-06 s⁻¹. In addition, in the series with glucosamine-6-phosphate [3], the “self-cleavage kobs at 2500 uM GlcN6P” value turned out to be 0.000183 ± 1.6e-05 s⁻¹. The “self-cleavage kobs at 10000 uM GlcN6P” value in the series with glucosamine-6-phosphate [5] stood at 0.000386 ± 3.2e-05 s⁻¹.

As for AUAAAAGCGCCACAACUACAGAAAUGUAGUUGACGAGGAGGAGGUUUAUCGAAUUUUCGGCGGAUGCCUUCAAA [G13C C70U], the kcat with glucosamine-6-phosphate [1] was 0.000154 ± 4.9e-06 s⁻¹. For the same variant, in the series with glucosamine-6-phosphate [6], the KM came to 1400 ± 140 µM. The “self-cleavage kobs at 640 uM GlcN6P” value with glucosamine-6-phosphate [2] is 4.57e-05 ± 8.9e-06 s⁻¹. Also, the “self-cleavage kobs at 2500 uM GlcN6P” value with glucosamine-6-phosphate [3] amounted to 0.000103 ± 1.2e-05 s⁻¹. Also, the “self-cleavage kobs at 10000 uM GlcN6P” value with glucosamine-6-phosphate [5] is 0.000134 ± 1e-05 s⁻¹.

Take AUAAAAGCGCCAGAUCUACAGAAAUGUAGUUGACGAGGAGGAGGUUUAUCGAAUUUUCGGCGGAUGCUUCCAAA [A15U C68U]: in the series with glucosamine-6-phosphate [1], the kcat is 0.000466 ± 3e-05 s⁻¹. Also, the KM with glucosamine-6-phosphate [6] was 1610 ± 210 µM. Also, the “self-cleavage kobs at 40 uM GlcN6P” value with glucosamine-6-phosphate [4] is 1.92e-05 ± 9.6e-06 s⁻¹. Also, the “self-cleavage kobs at 160 uM GlcN6P” value with glucosamine-6-phosphate [7] came to 4.94e-05 ± 7.4e-06 s⁻¹. In the series with glucosamine-6-phosphate [2], the “self-cleavage kobs at 640 uM GlcN6P” value amounted to 0.000127 ± 9.9e-06 s⁻¹. In the series with glucosamine-6-phosphate [3], the “self-cleavage kobs at 2500 uM GlcN6P” value was found to be 0.000277 ± 2.2e-05 s⁻¹. The “self-cleavage kobs at 10000 uM GlcN6P” value in the series with glucosamine-6-phosphate [5] was 0.000409 ± 2.7e-05 s⁻¹.

With AUAAAAGCGCCAGAACUACAGAAAUGUAGUAGACGAGGAGGAGGUUUAUCGAAUUUUCGGCGGAUGCAUCCAAA [U31A C68A], the kcat with glucosamine-6-phosphate [1] is 2.86e-05 ± 9.3e-06 s⁻¹. In the series with glucosamine-6-phosphate [4], the “self-cleavage kobs at 40 uM GlcN6P” value is less than 1e-05 s⁻¹. In the series with glucosamine-6-phosphate [3], the “self-cleavage kobs at 2500 uM GlcN6P” value was found to be 4.06e-05 ± 1.6e-05 s⁻¹.

As for AUAAAAGCGCCAGAACUACAGAAAUGUAGUUGACGCGGAGGAGGUUUAUCGAAUUUUCGGCGGUUGCCUCCAAA [A36C A64U], in the series with glucosamine-6-phosphate [1], the kcat stood at 1.13e-05 ± 3.6e-06 s⁻¹. Also, the “self-cleavage kobs at 40 uM GlcN6P” value in the series with glucosamine-6-phosphate [4] was less than 1e-05 s⁻¹. Besides, in the series with glucosamine-6-phosphate [2], the “self-cleavage kobs at 640 uM GlcN6P” value is less than 1e-05 s⁻¹.

Regarding AUAAAAGCGCCAGAACUAAAGAAAUGUAGUUGACGAGGAGGAGGUUUAUCGAAUUUUCUGCGGAUGCCUCCAAA [C19A G59U], the kcat with glucosamine-6-phosphate [1] amounted to 0.000115 ± 2.9e-05 s⁻¹. For the same variant, the “self-cleavage kobs at 10000 uM GlcN6P” value with glucosamine-6-phosphate [5] amounted to 3.11e-05 ± 1.5e-05 s⁻¹.

For AUAAAAGCGCCAGAACUACAGAAAUGUAGUUGACGUGGAGGAGGUUUAUCGAAUUUUCGGCGGAUGUCUCCAAA [A36U C67U], in the series with glucosamine-6-phosphate [1], the kcat was less than 1e-05 s⁻¹.
